{"source": "the DeepSol protein solubility set"}
{"assay": "soluble on expression in E. coli; label from the status in PepcDB or PDB records"}
{"sequence": "MSLKIDFLTLFPEMFEGVLGSSILQKAQEKDAVQFQVVNFREYSDNKHNTVDDYPYGGGAGMVLKPQPVFDAVEDLTSKAAAAPRIILVCPQGERFTQKKAEQLAKEEHLLFICGHYEGYDERIREHLVTDEISIGDFVLTGGELPAMMIADSVVRLLPGVLGKEASHIEDSFSTGLLEHPHYTRPADYKGLKVPETLLSGNHAKIEEWRNKESIRRTYLRRPDLLKDYPLTEQQRKWISEWEKEEGGSHHHHHH", "soluble on expression in E. coli": "soluble"}
{"sequence": "MSLKIGPILRSNVNRSITGDFDFREADLSLIRNFPNARVSLRDITLTTAAPFEGDTLFKAREAYLVMGIGELFKGAGEPIGIRELFVSGADLRLRLDAEERPNYLVAAEDPAATGATAASDGFTFDLQGYQIADSKISYMDQSSGISFLLEDIQHTGSGDLSLAESRLETRTDARISLGMDSVQYLDRNSLQLDARIGIDLETDTYTFLENEGLINQMPLVFEGSVQLVEEGQEIDLDFRTPSSDFKNFLALIPEAYSKSLEEVRTSGQFTLEGSITGRSDDTRIPNLDIRMEAVDAAFRYPDLPKGIDDINFSARLLNTTGIAGDTYLEIPAAGFRIDQDVFNMSGNIRSLTGNPEVDAALKGTINLASLDQAYPVELAPGLSGVLRADVQTAFDMASVENKQYGNTRTSGSLQLSNLNFRADNFAEPVKIREARLRFDPVEARLESLSGSLGQSDFTLSGTVRDYLGYLLADGILKGQFSLTSNQLLVSDFMSPEDPGQAEKETGADARASGQAPDGGPAFQIPAAIDVSIRGQAASVVYDGLPLRNVSGNLQIRDQELQLRDVRSDALDGKLALNGTVATGEGLPRFNMDLGIDGFRIRETLESIELFETLAPIASIVEGKLNSRVQLSGLLNSDFSPDLMSLAGNVVAEVLASDITGTRAKVLEALDARMDFFNMEDLDLKGLKTALNFENGLVTVKPFSFTYRDMEVSVAGSHSFDQQLNYTATLQVPAKYLGSDVNRLVTELQEPGLKEGHHHHHH", "soluble on expression in E. coli": "not soluble"}
{"sequence": "MSLKIKEITIWKEDLALTRPYTIAYETISAVENVFVLLETDNGITGIGAGSPAEDVTGETITATETALSLKLAPILQGKDIRSCFSLLKELNTALADTPAALAAADIALHDLAAKTMGLPLVDLLGRVHDRLPTSITIGIMPVKETLAEAEEYLGRGFSILKIKTGLNVEEDIERIIRLNETFKSKICMRVDANQGYEVEELHHFFKKTVGLVEFIEQPLKAEHLEKMGQLPQAIRRVSAADETLLGPRDAAQMLHAPRPFGIFNIKLMKCGGIAPGLEIANMAGHADIDLMWGCMDESIVSIAGALHAAFSSRATRYLDLDGSLDLARDIVNGGFILENGWMRTTDQPGLGVKRIEGHHHHHH", "soluble on expression in E. coli": "soluble"}
{"sequence": "MSLKIKKSKLIGFVVADITNPFSVAAFRGVEEVCDQYGYSIMVCNTDNSPEKEREMLLKLEAHSVEGLILNATGENKDVLRAFAEQQIPTILIDRKLPDLKLDTVTTDNRWITKEILQKVYSKGYTDVALFTEPISSISPRAERAAVYQEMASVQNVNGLVRLHEIDVKDKEQLKAELRSFHKEMPEQKKAILALNGLIMLKIISCMEELGLRIPQDIGIAGFDDTEWYKLIGPGITTIAQPSHDMGRTAMERVLKRIEGDKGAPQTIELEAKVIMRKSLEGHHHHHH", "soluble on expression in E. coli": "soluble"}
{"sequence": "MSLKIKLIAVDLDGTLLTSRKKVSPKTLATLKKAREKGILVVPLSGRPLPGVLKVFEPFKLDPADNFAICYNGGLVQRMDGEVLSVSPLTDENVEHMLALKQTGIFGPYFMDTKDFYVAPKGSSFGVGFLAKARNMGVKRMVPGQHYEFIKGEFVSLPSKIKKFRAGFSPATEQEFEISASGGQCLEFNTPGTSKGQALTTLLDLLNIQPEEAMVFGDNNNDLSDFQLPGVFKVAMGNAIDEIKAAADYVTASNNQDGIALAVEKFVDMEGHHHHHH", "soluble on expression in E. coli": "soluble"}
{"sequence": "MSLKILLKQAMVYPITSQKFQGDVLVIGEKIAEVKPFIQPTQDMTVIDARALHLLPGFIDVHTHLGLYDEGTGWAGNDANETSEVSTPHIRSLDGIHPLDIAFQDAVQNGITTVHVMPGSQNIIGGTTCVIKTAGTCIDHMIIQEPAGLKIAFGENPKKVHSNGTKESITRMGIMGLLRESFYEAQHYGHEADFRMLPILKALRREIPVRIHAHRADDISSALRFATEFNLDLRIEHCTEGHFIVEELSKHNLKVSVGPTLTRRSKIELKNKTWDTYHILSKSGVEVSITTDHPYTPIQYLNLCAAVAVREGLDEKTALEGITIFPARNLRLEDRIGSIEVGKDADLVLWTHHPFHYLAKPVLTMIDGKIIYKKNKKNEGHHHHHH", "soluble on expression in E. coli": "not soluble"}
{"sequence": "MSLKILVYGINYSPELTGIGKYTGEMVAWMAQEGHEVRVITAPPYYPQWKVGERYSAWRYRWEEGEATVWRCPLYVPKQPSTLKRLLHLGSFALSSFFPLMAQRRWKPDRIIGVVPTLFCTPGMRLLATLSGARTVLHIQDYEVDAMLGLGMAGKGKRGSVARLATAFERSALRNVDNVSTISRSMMNKAREKGVAAEKILFFPNWSEVARFQDVNDADVTALRQQLGLPEGKKIVLYSGNIGEKQGLEKVIDAAERLRDRPLIFAIVGQGGGKARMENMARERGLANIKFLPLQPYDALPALLKMGDCHLVVQKRGAADAVLPSKLTNILAVGGNAVITAEPHTELGQLCARYPGIAVCVEPESTDALVDGISQALAMPKNNMTAREYAERTLNKENVLRQFIADIRGEGHHHHHH", "soluble on expression in E. coli": "soluble"}
{"sequence": "MSLKITADEALTLSKSNGSDIFLLCSFANKLREKFNGNHVDLCSVINAKSGNCSEDCAFCAQSAHHKANVSCYPLLNEDKILEMAKQREAYGARHCDIATSGLGYTGDEKDFQTILKAFKKMKENTNLKLCACLGTLTEKAMNSLAAVGVERYNHNLETAKSFYKNIVSTHGYDERIKTINYAKNAKMEVCSGMIVGLGETMEQRIEHALLLRDLNVDAVPVNILNPVKGTKLENAKPLSPMEIIKTFAIIRFILPDKIIRYAGGREKNLRSLQPLGFLSGLNGMLIGNYLTTNGQSVNDDFNMLKDLELEYEGHHHHHH", "soluble on expression in E. coli": "not soluble"}
{"sequence": "MSLKITILAVGKLKEKYWKQAIAEYEKRLGPYTKIDIIEVPDEKAPENMSDKEIEQVKEKEGQRILAKIKPQSTVITLEIQGKMLSSEGLAQELNQRMTQGQSDFVFVIGGSNGLHKDVLQRSNYALSFSKMTFPHQMMRVVLIEQVYRAFKIMRGEAYHK", "soluble on expression in E. coli": "soluble"}
{"sequence": "MSLKITNVEAVALDVPIMVRHRKDPFVRQCNLVRIDTDSGISGYGYTSPGEWHSTAAKVVNDMFRDVLIGQNPCKINSVISSLSTRFNRHRATGAWASAVSMVDIGLWDLLGKLYGVPTSVLLGGARTEVPVYITFGLAEYSTEELVDTVSHLVDEGHTRFKMIVGGLRSRPITREESLRPGGSHWFQGFTEDLLLNDVKRVAAVREAIGPDKGLMVDGNGAFPLGEAKRLAQNLEPFNLIWFEEPVLGNDPDLLQRLRDQTTVPIAAGQNIGSLAAHRTLIESKSYDICQLNVTHCGGYSEALKIAHLAEAHNMPIATGGAQPHHNMHFHAGVQNGGLVEFHWLSWKVGEALFVDPPAPRNGFVSLTDEPGLGLEVRPDAIEKFRVEGHHHHHH", "soluble on expression in E. coli": "soluble"}
{"sequence": "MSLKIWITKNHKSKDDWSRSKKFIIIKITTHDGVEGWGEAFSIHLREKAIATIIIELFKEISKIKNLSINSLYNKISLLSDNHKGLDFSAATSAIEIAAWDIAGKLKNLPLNCLLTDNPKPDVSIYVTCWSDLRKDEEDYLDQVEKYFEKKYGGIKIYPLFENTSNSIKFVDRVRKIVGMEYPLMLDLAIPKDLDQTKTFLKEVSFLKPYWIEEPVDGENISLLTEIKNSFDMKVVTGEKQSGLPHFKEIIKRDAADILNPDISGIGGIIDMLYVSKEALNNDISISPHCWNSMSVSASAMLHVCSSIPNSEKAEIFPDYIEFTKEFCELPFNIVEDKAILNQSAGLGIVIHEDTLSNLSTYRMDEKNEGHHHHHH", "soluble on expression in E. coli": "soluble"}
{"sequence": "MSLKIYLFKPYDVIGFGGLKNFSAGETHIQKSIFPPPIMRFFHIFNSVYGVFLYKDGNLFLPVPSDCLVKRKEESGKAKISPLEFPPLIRGDLEAYERANGFISFSDLMNKYAKNIDGFKIYLLEEFLKKESRVGITMDKERRVVRSIKEINRKEEKGLLYSQDFFRFNDGVKLAVLGEINKDIVISGKQYFRMGGEGKIVSFKHTEHINSFLEGKIKIKNGNYYKFYCLTHAYINNGIIESKIQTICIEGINFEVEWLYNGGVEYVSGYNKPFLEMLRPGSVLILKAKNEGEIQRLNQISTNVPISNIKNFLNRGWNSGIIVEGVKEGHHHHHH", "soluble on expression in E. coli": "soluble"}
{"sequence": "MSLKKEVVVIGGGIVGLSCAYSMHKLGHKVCVIEKNDGANGTSFGNAGLISAFKKAPLSCPGVVLDTLKLMLKNQAPLKFHFGLNLKLYQWILKFVKSANAKSTHRTMALFERYGWLSIDMYHQMLKDGMDFWYKEDGLLMIYTLEESFEKKLKTCDNSGAYKILSAKETKEYMPVVNDNICGSVLLTENAHVDPGEVMHSLQEYLQNVGVEFLYNEEVIDFEFKNNLIEGVITHKEKIQAETIILATGANPTLIKKTKNDFLMMGAKGYSITFKMPEELKPKTSSLFADIFMAMTPRRDTVRITSKLELNTNNALIDKEQIANMKKNLAAFTQPFEMKDAIEWCGFRPLTPNDIPYLGYDKRYKNLIHATGLGWLGITFGPAIGKIIANLSQDGANEKNADIMLFSAFFRDEGHHHHHH", "soluble on expression in E. coli": "not soluble"}
{"sequence": "MSLKKKTTLSEEDQALFRQLMAGTRKIKQDTIVHRPQRKKISEVPVKRLIQEQADASHYFSDEFQPLLNTEGPVKYVRPDVSHFEAKKLRRGDYSPELFLDLHGLTQLQAKQELGALIAACRREHVFCACVMHGHGKHILKQQTPLWLAQHPHVMAFHQAPKEYGGDAALLVLIEVEEWLPPEGHHHHHH", "soluble on expression in E. coli": "soluble"}
{"sequence": "MSLKKTEKAYEVKRAFNNNIVLVDDDEKEIILFAKGIGFNCKKGSIIPENTNIEKIFTIQDENNIANFRRVVGSNDEKFIAFCEELILEISRDFSEELNEIIHIGLIDHISFAIERMKKGEILRNPFLVEIETLYPKEFEAATKMVKKLEDFTGVSIVDDEIGFIAMHIHSARTTGKISHTIKFTYIANTAVEYIEDAFNIEVDRTSLSYARFISHLRFAIERLINNTPVKNELLSIIKLKYPESFKVAEEIGKAINEDFSLEVAEDEIGYLALHVERIRKNEGHHHHHH", "soluble on expression in E. coli": "soluble"}
{"sequence": "MSLKLYYQQAMLLPKTKEILLRWEGVLSAGQRKASNAVVINLKGKMDMLLWAVAGSGKTEMMFEGMDWALRQGFRICVASPRVDVCLELLPRLKEAFPSMDIVCLYGDSKDNYQGEQFVIATTHQLIRFYETFQVIFIDEVDAFPYAKDPFLEYAVMKARTKEGSTIIITATPEKKWQEECVKGKRNFVKIPGRYHREGHHHHHH", "soluble on expression in E. coli": "soluble"}
{"sequence": "MSLKMETGKLLMELSNLDGPSGYETNVVSYIKSVIEPFVDEAKTTRHGSLIGYKKGKGIGKLAFFAHVDEIGFVVSKVEGQFARLEPVGGVDPKVVYASKVRIYTKNGIERGVIGMLAPHLQDSESRKKVPTYDEIFVDLSLCERGVRVGDIAVIDQTAFETNGKVVGKALDNRASCGVLVKVLEFLKRYDHPWDVYVVFSVQEETGCLGALTGAYEINPDAAIVMDVTFASEPPFSDHIELGKGPVIGLGPVVDRNLVQKIIEIAKKHNVSLQEEAVGGRSGTETDFVQLVRNGVRTSLISIPLKYMHTPVEMVDPRDVEELARLLSLVAVELEVEGGSHHHHHH", "soluble on expression in E. coli": "soluble"}
{"sequence": "MSLKMQEPIEDPLSKLTQYSGKTFVIKYGGSIMKNKKAEEAFIKDVKYLRKLGINIVIVHGGGPEISRWLELSGIESRFVDGLRVTDEKVIEIVQMVLSGKINKKLSLQFNIDGVNAVGLSGVDNKLIEATKKYVYKGNETIDIGYVGKVTKVNSEFIKELLKGGQVPVIAPIGCDNKGNVYNINADYAAAFISSALDAEKLIILTDVEGVYRNINDPQSIIHEIDIKDVNYYIKEEIIKGGMIPKVQCCASAIENGTKNVQLIDGRNDHCLINDILNYRGTIISYRSGVKCQKAIEGHHHHHH", "soluble on expression in E. coli": "soluble"}
{"sequence": "MSLKNLTIKENQPAIYITNLGKYTEGEHMGQWLNVPATKEQFNVVLKNIGVDGVQYEEYFLTDWENIGGISQFSNIERVNNMAKIQIAINEKLYNFFGADQEITYFNDDKYKVMEILNDYAKEQADELTTDEIIENIESMRIFAQDQYNSCIVNFANYLIDELEFINFKAIEKIDQKVVNYFDFEKFGHDKLIELNANSDVIIGTYEVGKLNDTIIIVTLFEGHHHHHH", "soluble on expression in E. coli": "soluble"}
